Measured values reported in article PMC8567202, “Phosphoinositide-binding activity of Smad2 is essential for its function in TGF-β signaling” (The Journal of Biological Chemistry, 2021).
Where a chain is given by its changes, count along the chain named. Names and notes keep the numbering of the source. “Also recorded” adds a separate entry of the source.

B1: Smad2 WT: bacterially expressed full-length Smad2 wild-type (protein)
chain: MSSILPFTPPVVKRLLGWKKSAGGSGGAGGGEQNGQEEKWCEKAVKSLVKKLKKTGRLDELEKAITTQNCNTKCVTIPSTCSEIWGLSTANTVDQWDTTGLYSFSEQTRSLDGRLQVSHRKGLPHVIYCRLWRWPDLHSHHELKAIENCEYAFNLKKDEVCVNPYHYQRVETPVLPPVLVPRHTEILTELPPLDDYTHSIPENTNFPAGIEPQSNYIPETPPPGYISEDGETSDQQLNQSMDTGSPAELSPTTLSPVNHSLDLQPVTYSEPAFWCSIAYYELNQRVGETFHASQPSLTVDGFTDPSNSERFCLGLLSNVNRNATVEMTRRHIGRGVRLYYIGGEVFAECLSDSAIFVQSPNCNQRYGWHPATVCKIPPGCNLKIFNNQEFAALLAQSVNQGFEAVYQLTRMCTIRMSFVKGWGAEYRRQTVTSTPCWIELHLNGPLQWLDKVLTQMGSPSVRCSSMS
modifications: left off: His6, N-terminal, state not stated
notes: bacterially expressed full-length Smad2 wild-type
B2: Smad2-W422A: W422A mutant of full-length Smad2; specific PI(4,5)P2 binding-compromised (protein)
chain: B1 chain with W422A
modifications: left off: His6, N-terminal, state not stated
B3: Smad2-K420A: K420A mutant of full-length Smad2; predominantly TβRI binding-compromised (protein)
chain: B1 chain with K420A
modifications: left off: His6, N-terminal, state not stated
B4: Smad2-Y426A: Y426A mutant of full-length Smad2; specific PI(4,5)P2 binding-compromised (protein)
chain: B1 chain with Y426A
modifications: left off: His6, N-terminal, state not stated
B5: Smad2- R427A/R428A: double mutant of full-length Smad2; PI(4,5)P2 and TβRI binding-compromised (protein)
chain: B1 chain with R427A, R428A
modifications: left off: His6, N-terminal, state not stated
B6: Smad2-E425K: charge-reversal mutant of full-length Smad2; PI(4,5)P2 and TβRI binding-enhanced (protein)
chain: B1 chain with E425K
modifications: left off: His6, N-terminal, state not stated

The molecules below were run on TβRI GS region peptide (F-Ahx-YDMTTpSGpSGpSGLPLL) (assay: Fluorescence anisotropy binding to TβRI GS peptide). Conditions: 50 μM POPC/POPS/PI(4,5)P2 (77:20:3) LUVs.
Text: (§1) However, this tentative assignment has been confirmed neither by a high-resolution structure of the Smad2-TβRI complex nor by a quantitative and systematic binding study, leaving uncertainty about the exact nature of the Smad2-TβRI-binding interface. Since the L3 loop is a part of the newly identified PI(4,5)P2-binding site, we checked if these PI(4,5)P2-binding residues are also involved in the Smad2-TβRI interaction using two fluorescein-labeled synthetic peptides derived from the GS region (i.e., GS peptide: fluorescein-aminohexanoyl (F-Ahx)-YDMTTpSGpSGpSGLPLL) and the L45 loop (i.e., L45 peptide: F-Ahx-ADNKDNGT), respectively. In particular, the GS peptide represents the GS motif triply phosphorylated by TβRII. We then measured binding to Smad2 WT and mutants to these peptides by fluorescence anisotropy according to our established protocol ([21]). […] We thus primarily used the GS peptide to assess the effects of mutations on the Smad2-TβRI interaction. […] They also yielded distinct structural variants for further functional studies. Specifically, W422A and Y426A could serve as specific PI(4,5)P2 binding-compromised mutants and K420A as a predominantly TβRI binding-compromised mutant. R427A/R428A could also serve as a PI(4,5)P2 and TβRI binding-compromised mutant, whereas E425K as a PI(4,5)P2 and TβRI binding-enhanced mutant.
(§2) Figure 3 Affinity of Smad2 WT and mutants for TβRI-derived peptides determined by fluorescence anisotropy.A, binding of Smad2 WT (black), W422A (red), Y420A (cyan), R427A/R428A (green), K420A (blue), and E425K (orange) to the GS peptide (F-Ahx-YDMTTpSGpSGpSGLPLL). […] B, binding of Smad2 WT (black), W422A (red), Y420A (cyan), R427A/R428A (green), K420A (blue), and E425K (orange) to the L45 loop peptide (F-Ahx-DNKDNGT). C, effects of 50 μM POPC/POPS/PI(4,5)P2 (77:20:3) LUVs on binding of Smad2 to the GS peptide. The presence of vesicles (orange) raises the Kd value from 20 ± 6 to 60 ± 7 nM. The peptide concentration was fixed at 2.5 nM, and the Smad2 concentration was varied from 0 to 150 μM. The experimentally observed anisotropy (A) values were normalized (Anorm) using the equation: Anorm = (A − Amin)/(Amax − Amin) where Amax and Amin are maximal and minimal A values, respectively, for each measurement. The plots of Anormversus [Smad2] were analyzed by the nonlinear least-squares analysis using the equation: Anorm = 1/(1 + Kd/[Smad2]).
(§3) The fluorescein-6-aminohexanoyl (F-Ahx)-labeled TβRI GS region peptide (F-Ahx-YDMTTpSGpSGpSGLPLL) was dissolved in dimethyl sulfoxide to yield 1 mg/ml stock solution, F-Ahx-labeled TβRI L45 loop region peptide (F-Ahx-ADNKDNGT) was dissolved in a 3:1 mixture of water and acetonitrile to yield 2.5 mg/ml stock solution. Both peptide solutions were diluted to 1 to 10 μM with 20 mM Tris buffer, pH 7.9, containing 160 mM NaCl for binding studies. In total, 300 μl of the Smad2 (WT or mutant) solution (0–250 μM) was added to a series of 1.5 ml microcentrifuge containing the peptide solution (2.5 μM). After 10-min incubation in the dark, the mixture was transferred to a quartz cuvette with 2-mm path length and fluorescence anisotropy (r) was measured with excitation and emission wavelengths set at 485 and 535 nm, respectively, using Horiba Flurolog-3 spectrofluorometer. Since Po >> Pepo under our conditions, the Kd for the Smad2-peptide binding was determined by the nonlinear least-squares analysis of the binding isotherm using the Equation 1:(1) Pepbound/Pep0=Δr/Δrmax=1/1+kd/P0 where Pepbound, Pep0, and P0 indicate the concentration of bound peptide, total peptide, and total Smad2, respectively, and Δr and Δrmax are the anisotropy change for each P0 and the maximal Δr, respectively.
In the case of B1, the “effect of PI(4,5)P2 LUVs on binding to the GS peptide” value is reported as “significantly interfered with binding of Smad2 to the GS peptide”.

Same assay, conditions: fluorescence anisotropy
With B2 the “GS peptide affinity relative to WT” value was “essentially the same affinity as the WT; also recorded: essentially identical binding curves”. With B3 the “GS peptide affinity relative to WT” value was “tenfold decrease; also recorded: tenfold lower affinity than the WT”. In the case of B4, the “GS peptide affinity relative to WT” value is reported as “essentially the same affinity as the WT”. B5 was tested, and the “GS peptide affinity relative to WT” value was “twofold lower affinity than the WT”. For B6, the “GS peptide affinity relative to WT” value was “twofold higher affinity”.

Same assay, conditions: fluorescence anisotropy, 20 mM Tris, pH 7.9, 160 mM NaCl, 10-min incubation; average ±S.D., n = 3; read-out: Kd for peptide binding, GS peptide
B2 was tested, and the Kd was 21 ± 5 µM. In the case of B1, the Kd is reported as 20 ± 6 µM. B3 gave a Kd of 200 ± 48 µM. For B4, the Kd was 20 ± 3 µM. In the case of B5, the Kd is reported as 44 ± 4 µM. With B6 the Kd was 8 ± 0.8 µM.

Same assay, conditions: fluorescence anisotropy, Kd comparison
For B1, the “binding to GS peptide relative to L45 peptide” value was 3.3 times.

Same assay, conditions: fluorescence anisotropy; listed as Y420A
With B4 the “GS peptide affinity relative to WT” value was “essentially identical binding curves”.

Same assay, conditions: with 50 μM POPC/POPS/PI(4,5)P2 (77:20:3) LUVs; fluorescence anisotropy, Smad2 0 to 150 μM; read-out: Kd, GS peptide, in the presence of vesicles
In the case of B1, the Kd is reported as 0.06 ± 0.007 µM.

Same assay, conditions: without LUVs; fluorescence anisotropy, Smad2 0 to 150 μM; read-out: Kd, GS peptide, without vesicles
Work on B1 yielded a Kd of 0.02 ± 0.006 µM.

The molecules below were run on TβRI L45 loop region peptide (F-Ahx-ADNKDNGT) (assay: Fluorescence anisotropy binding to TβRI L45 peptide). Conditions: not given.
Text: as §1, §2, §3
For B2, the “L45 peptide affinity relative to WT” value was “WT-like affinity”. B3 was tested, and the “L45 peptide affinity relative to WT” value was “lowest affinity”. In the case of B4, the “L45 peptide affinity relative to WT” value is reported as “WT-like affinity”. In the case of B5, the “L45 peptide affinity relative to WT” value is reported as “slightly lower affinity”. B6 was tested, and the “L45 peptide affinity relative to WT” value was “slightly higher affinity”.

Same assay, conditions: 20 mM Tris, pH 7.9, 160 mM NaCl, 10-min incubation, average ±S.D., n = 3
In the case of B2, the Kd is reported as 67 ± 6 µM. B1 gave a Kd of 66 ± 4 µM. With B3 the Kd was 100 ± 16 µM. Molecule B4 has a Kd of 70 ± 7 µM. For B5, the Kd was 75 ± 11 µM. Molecule B6 has a Kd of 55 ± 3 µM.
